Results from the supplement of paper PMC10724198.
± gives the standard deviation of the averaged measurements.

What follows are sequences tested on Saccharomyces cerevisiae (assay: protein stability index of tFT-peptide fusion (C-terminal peptide) (PSI (0-1 scale)); higher = more stable (slower turnover)). Details: genetic background: wild type; temperature: 30 C.
Protocol: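 Multiplexed protein stability (MPS) profiling in S. cerevisiae. Random 12-aa peptides (tFT-X12 library) are fused to the C-terminus of a sfGFP-mCherry tandem fluorescent timer, after mCherry and a GGGS linker. Cells are FACS-sorted into 8 mCherry/sfGFP bins and deep-sequenced. The protein stability index (PSI) is the read-weighted bin average, scaled from 0 (unstable) to 1 (stable). Only peptides with >10 reads are reported; cells were grown at 30 °C in SC-His with glucose.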
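Also: PSI is a weighted mean of sequencing reads over stability bins, variants kept only with over 10 reads, mCherry proximal and sfGFP distal, peptide attached via GGGS linker.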

Sequence | protein stability index
GPGSFAPLPPRS | 0.684 ± 0.033
GPLPYISLSFSP | 0.7304 ± 0.0028
GPPPRSPAFRSL | 0.695 ± 0.092
GPPPRYLPAFPA | 0.7057 ± 0.0042
GPPSRPPRRTAP | 0.707 ± 0.14
GPRDPSCLLPPL | 0.653 ± 0.013
GPRRVAVAGETS | 0.715 ± 0.037
GPTPHPVPTTCS | 0.69 ± 0.016
GPVQWSLLGGSW | 0.65 ± 0.012
GPVYPGSRPAFT | 0.708 ± 0.092
GPWGGSGGGGVG | 0.628 ± 0.041
GQMDGGMGGKVI | 0.582 ± 0.062
GQNGFVDGGCVL | 0.677 ± 0.0081
GQQETIGLRAHI | 0.681 ± 0.025
GQQLSLRGVVHW | 0.844 ± 0.2
GQSQSGIFRTIF | 0.72 ± 0.024
GQSVYRRWGCLK | 0.68 ± 0.01
GQVATAGDIRVR | 0.69065 ± 0.00026
GQYEPEWKRLYC | 0.64 ± 0.011
GRADWERGMGLV | 0.664 ± 0.021
GRAGEKRGGRRL | 0.66 ± 0.013
GRANLAPVPPPR | 0.685 ± 0.013
GRASAGVLLCDG | 0.659 ± 0.028
GRCQSPRASPSG | 0.584 ± 0.013
GRDTVARSEGDR | 0.712 ± 0.037
GRERASHRGPRN | 0.648 ± 0.0066

Sequence | protein stability index
GRFGGLLRKVLG | 0.678 ± 0.15
GRFGIGLYLCFL | 0.597 ± 0.094
GRGGAGFRGGIE | 0.6707 ± 0.0044
GRGRVGGGGVAV | 0.682 ± 0.042
GRGTGGKGRRGS | 0.693 ± 0.015
GRGVFPRRPYWV | 0.724 ± 0.0086
GRGVGWRACGVV | 0.685 ± 0.018
GRIAGGGGGWRW | 0.648 ± 0.064
GRILGEGWVCVV | 0.663 ± 0.087
GRKAEVRVLHFR | 0.6447 ± 0.0055
GRKKLQKKIEEQ | 0.6783 ± 0.0032
GRLGRHFSVKFL | 0.6584 ± 0.0052
GRLGRMWRCDPR | 0.658 ± 0.032
GRLWVGGSVGGV | 0.669 ± 0.012
GRPRERWGVGVV | 0.6865 ± 0.0023
GRQLSTSRLRSS | 0.674 ± 0.025
GRRAWWQQPDDS | 0.774 ± 0.099
GRRDARTEDVRE | 0.688 ± 0.0049
GRRFWFSNHYNC | 0.628 ± 0.091
GRRKKKNRDKMK | 0.6872 ± 0.004
GRRLSDTSIFSS | 0.679 ± 0.087
GRRRCGGGGEVC | 0.66 ± 0.064
GRRRVSTAPRTT | 0.739 ± 0.056
GRSFRQWRDSGS | 0.718 ± 0.066
GRSGACGWVGFG | 0.7238 ± 0.0013
GRSGGEGGGEEE | 0.681 ± 0.029

Sequence | protein stability index
GRSHIQPCQDII | 0.75 ± 0.078
GRSIKGLLYQSL | 0.681 ± 0.025
GRSKKGTISMNS | 0.67 ± 0.0077
GRTAEKGHPPRG | 0.7 ± 0.073
GRTGRSVGTGVR | 0.662 ± 0.025
GRTSTVRSLVFT | 0.666 ± 0.026
GRTYWDCYFPRP | 0.778 ± 0.061
GRVRGRGEGPVA | 0.675 ± 0.049
GRWFGGRGVGEG | 0.635 ± 0.013
GRWGVMKGEEDV | 0.737 ± 0.032
GRWSDSSVVTLG | 0.679 ± 0.018
GRYDARNYIRGK | 0.745 ± 0.14
GRYGPTIPRGEP | 0.696 ± 0.017
GSAGGGLLCGCP | 0.657 ± 0.008
GSAVLFEFTLKM | 0.651 ± 0.053
GSDIIGSRDGWL | 0.67 ± 0.039
GSFGFGVTVVFW | 0.5563 ± 0.0021
GSGAFSLVSSYF | 0.656 ± 0.017
GSGALGAGRASR | 0.723 ± 0.017
GSGRVVGSWSVL | 0.661 ± 0.045
GSGVFEASAWGA | 0.679 ± 0.0069
GSGVSDWRCFEG | 0.627 ± 0.071
GSGVVVEGFLPD | 0.65 ± 0.021
GSGWRLLLGLVR | 0.5731 ± 0.0022
GSIWVVGGGQGV | 0.731 ± 0.048
GSLWGVFFRGLL | 0.647 ± 0.037

Sequence | protein stability index
GSMWCLTPSAGL | 0.7 ± 0.034
GSQCPVLEQQRD | 0.655 ± 0.018
GSRALYCIVPRF | 0.661 ± 0.053
GSRVEVGLGVRC | 0.712 ± 0.027
GSSAPSYTIGPE | 0.682 ± 0.017
GSSAVGGGGVWW | 0.819 ± 0.1
GSSVGVAGLRGR | 0.656 ± 0.029
GSSVSSVWGGVG | 0.629 ± 0.022
GSTSWAWITLPH | 0.747 ± 0.0077
GSVGSFIVVVHF | 0.552 ± 0.013
GSVMDMTRGGVS | 0.646 ± 0.097
GSVSLLASLMCS | 0.55596 ± 0.00023
GSWGRPAGFSRR | 0.651 ± 0.028
GSWGVGLGKVHW | 0.752 ± 0.022
GTALLSGGVLVI | 0.689 ± 0.11
GTATINQISSPQ | 0.673 ± 0.028
GTEFIIDIQIFV | 0.547 ± 0.02
GTETFHDASIGI | 0.653 ± 0.016
GTGEMNDKDQEE | 0.798 ± 0.12
GTKEYKKNRKII | 0.653 ± 0.03
GTQPAAGNTPWA | 0.703 ± 0.029
GTSPSSVRPLCG | 0.7043 ± 0.0069
GTTHRSKRLRRK | 0.768 ± 0.035
GTVEGAVQGLVE | 0.718 ± 0.045
GTVRGVVRGRGG | 0.664 ± 0.012
GTVSEGAMSVGF | 0.809 ± 0.11

Sequence | protein stability index
GTVWQSNSGAAT | 0.68 ± 0.028
GTWAGGGWSCES | 0.696 ± 0.039
GTYNIGVFAPEN | 0.653 ± 0.032
GVACEGRGGRCW | 0.689 ± 0.012
GVANSPTVRERT | 0.666 ± 0.018
GVCASGAGSVGG | 0.662 ± 0.029
GVCLQGRRASGE | 0.693 ± 0.091
GVCQSEKSARGI | 0.664 ± 0.05
GVDGLLRVYVME | 0.674 ± 0.029
GVEGASVLGWGR | 0.704 ± 0.19
GVGAPRLPPRPG | 0.696 ± 0.012
GVGEWRSGVGVG | 0.592 ± 0.043
GVGFGWGGVWME | 0.691 ± 0.0073
GVGGEGRNDALI | 0.635 ± 0.037
GVGGEIGRGGEY | 0.676 ± 0.035
GVGGEPDLADWG | 0.762 ± 0.023
GVGGGGCVLVRG | 0.723 ± 0.018
GVGGGGIGVGMG | 0.7262 ± 0.0018
GVGGPLRPGPCQ | 0.758 ± 0.24
GVGGVARGERIP | 0.678 ± 0.0085
GVGLSGEGGLGR | 0.642 ± 0.015
GVGQGGPVVVGR | 0.665 ± 0.024
GVGREGGCWRTG | 0.702 ± 0.11
GVGRPSDGPFRA | 0.666 ± 0.047
GVGSCVILRLRN | 0.557 ± 0.02
GVGWGDVWGCGE | 0.741 ± 0.038

Sequence | protein stability index
GVGWWLGLGVIW | 0.692 ± 0.029
GVIYFSLSSFPL | 0.655 ± 0.14
GVLGGAGCGVVL | 0.731 ± 0.023
GVLPYRYRGLVL | 0.64 ± 0.16
GVLRAWARLWGN | 0.599 ± 0.039
GVLRICFGGLVS | 0.729 ± 0.031
GVLRIRIGLGRG | 0.653 ± 0.028
GVLRPLVGALGM | 0.609 ± 0.0083
GVNMGKIYKIRN | 0.649 ± 0.03
GVPPFAPPPPPH | 0.703 ± 0.015
GVPPTPTHPCTC | 0.758 ± 0.072
GVPYSPKSHRDH | 0.643 ± 0.047
GVRERSCIKKAR | 0.604 ± 0.058
GVRGVSHMDGGD | 0.758 ± 0.16
GVSAPRFPGALA | 0.69 ± 0.01
GVSLREASVAAI | 0.7104 ± 0.0055
GVSVICGFPVSC | 0.732 ± 0.056
GVSWSWGDLAVL | 0.756 ± 0.016
GVTGGGVVNRGV | 0.689 ± 0.088
GVVIGWAGYKGT | 0.671 ± 0.043
GVVLDVRCVGLF | 0.661 ± 0.021
GVVRSSRRYSFR | 0.705 ± 0.034
GVVSRGGRRLGV | 0.7011 ± 0.0035
GVWPWWGWSCCF | 0.782 ± 0.1
GVYNGGIPQVLQ | 0.6843 ± 0.0028
